Patent US20220112288A1 (published 2022)
Where a chain is given by its changes, count along the chain named.

B1: 75110_11D03A (antibody, V domains shown)
VH: EVQLVESGGGLVQPGGSLRLSCAASGFTFSSYWMSWVRQAPGKGLEWVANINQDGNEKYYVDSVKGRFTISRDNAKNSLFLQMNSLRAEDTAVYYCAREGGQWLALDYWGQGALVTVSS
VL: DIQMTQSPSSVSASVGDRVTITCRASQGISSWLAWYQQKPGKAPKFLISGASSLQSGVPSRFSGSGSGTDFTLTISSLQPEDFATYYCQQANSFPWTFGQGTKVEIK
notes: Tested here as non-clonal hybridoma supernatant from AlivaMab Mouse Kappa mice (detected with anti-mouse Fc and anti-human kappa)
B2: 75110_01A06A (antibody, V domains shown)
VH: B1 VH with Q53E, F68L, F80Y, Y95F, A105S
VL: B1 VL with T20S, F46I, S49Y
notes: as for B1
B3: 75110_03D16A (antibody, V domains shown)
VH: B1 VH with N56G, F80Y, A97V, A113T
VL: B1 VL with A34T, S49Y, G50A, S67F
notes: as for B1
B4: 75110_07H07A (antibody, V domains shown)
VH: B1 VH with L4V, N52K, Q53E, D54E, N56S, F80Y, A97V, A113T
VL: B1 VL with A13G, F46L, S49F, E105Q
notes: as for B1
B5: 75110_04K10A (antibody, V domains shown)
VH: B1 VH with N56S, F80Y, M83L, V93M, A105S, A113T
VL: B1 VL with F46V, S49Y, A51V, L54F, T72I
notes: as for B1
B6: 75110_01D24A (antibody, V domains shown)
VH: QVQLQQWGAGLLKPSETLSLTCAVYGGSFSGYYWSWIRQPPGKGLEWIGEINHSGSTNYNPSLKSRVTISVDTSENQFSLKLNSVTAADTAVYYCARLVNWFDPWGQGTLVTVSS
VL: EIQMTQSPSSVSASVGDRVTITCRASQDISNWLAWYQQKPGKAPNLLIFAASSLQTGVPSRFSGSGSGTDFTLTISSLQPDDFATYYCQQANSFPYSFGQGTNLGIK
notes: Tested as non-clonal AlivaMab Mouse Kappa hybridoma supernatant: human variable domains and human kappa, mouse Fc
B7: 75110_14P05A (antibody, V domains shown)
VH: EVQLVESGGGLVQPGGSLRLSCAASGFTFSSYDVHWVRQATGKGLEWVSTIGTAGDTYYPGSVKGRFTISRENAKNSLYLQMNSLRAGDTAVYYCARGGFYYYGMDVWGQGTTVTVSS
VL: EIVLTQSPGTLSLSPGERATLSCRASQSVSSSYLAWYQQKPGQTPRLLIYGASSRATGIPDRFSGSGSGTDFTLTISRLEPEDFAVFYCQQSGSSPFTFGPGTKVDVK
notes: as for B6
B8: 75110_04G16A (antibody, V domains shown)
VH: QVQLQESGPGLVKPSQTLSLTCTVSGDSISSGYYYWSWIRQHPGKGLEWIGYISYSGSTYYNPSLKSRLTISVNTSKNQFSLKLSSLTAADTAVYYCARDRPSNFDAFDIWGQGTMVTVSS
VL: B7 VL with S30G, S32T, T44A, S53F, F87Y, S92Y, F97L, V107I
notes: as for B6
B9: 75110_02I16A (antibody, IgG1, V domains shown)
VH: QVQLQQWGAGLLKPSETLSLTCDVYGGSFSGYYWTWIRQPPGKGLEWIGEINHSGTTNSNPSLKSRVTISVDTSKSQFSLRLSSVTAADTAVYFCTRELNWFDPWGQGTLVTVSS
VL: DIQMTQSPSSVSASVGDRVTITCRASQDIANWLAWYQQKPGKAPQLLIYAASSLLGGVPSRFSGSGSGADFTLTISSLHPEDFATYYCQQANSFPYTFGQGTKLEIK
notes: Tested as non-clonal AlivaMab Mouse Kappa hybridoma supernatant: human variable domains and human kappa, mouse Fc; also called 75110_02116A

target: T1, human CD4 on the surface of SKW3 cells or human PBMCs (human, UniProt P01730 26-458); experiment: FACS confirmation, supernatant on human PBMCs, anti-mouse Fc A647, CD4+ gate
T1 construct: whole, on cells; SKW3 CD4 knockout cells served as the negative cell line; also called hCD4; SKW3 WT

PBMCs, anti-mFc 647 CD4+ gate - RL1 Binding | Binder
190000 | B1
321000 | B2
319000 | B3
234000 | B4
346000 | B5

target: T2, human CD4 on cells (SKW3 cells; human PBMCs) (human, UniProt P01730 26-458); experiment: FACS primary screen, non-clonal hybridoma supernatant, SKW3 vs SKW3 CD4 knockout cells, anti-human kappa FITC
T2 construct: whole, on cells; SKW3 CD4 knockout cells served as the negative cell line; also called hCD4

SKW3 WT vs KO anti-hKappa-FITC [fold] | Binder
2.5 | B6
2.8 | B7
2.3 | B8
1.7 | B9

target: T2, human CD4 on cells (SKW3 cells; human …); experiment: FACS confirmation, supernatant on human PBMCs, anti-mouse Fc 647, CD4+ gate

PBMCs, anti-mFc 647 CD4+ gate - RL1 Binding | Binder
257000 | B6
187000 | B7
255000 | B8
218000 | B9

target: T2, human CD4 on cells (SKW3 cells; human …); experiment: FACS binning on SKW3 cells pre-incubated with supernatant; competitor OKT4-A488, its signal read; background 2163, max binding 8200

SKW3 FACS Binning OKT4 A488 | Binder
11100 | B6
9340 | B7
9640 | B8
9810 | B9

target: T1, human CD4 on the surface of SKW3 cells …; experiment: FACS binning on SKW3 cells; competitor RPA-T4-PE-Dazzle 594 (its signal read); background 783, max binding 15000

RPA-T4-PE-Dazzle 594 signal | Binder
13100 | B1
14700 | B2
12300 | B3
14900 | B4
9800 | B5

target: T2, human CD4 on cells (SKW3 cells; human …); experiment: FACS binning on SKW3 cells pre-incubated with supernatant; competitor OKT4a read with anti-human A647 secondary; background 5000, max binding 35000

SKW3 FACS Binning OKT4a anti-hu A647 Secondary | Binder
5320 | B6
6110 | B7
6740 | B8
30700 | B9

target: T3, huCD4-HIS (human, UniProt P01730 26-390, limits assumed); experiment: ELISA binning; competitor ibalizumab; 100 ng/mL huCD4-HIS, anti-HIS HRP detection; background 45, max binding 3000000
T3 construct: not shown: HIS tag

Ibalizumab ELISA binning signal | Binder
1.63e+06 | B1
1.26e+06 | B2
663000 | B3
2.11e+06 | B4
1.13e+06 | B5

target: T2, human CD4 on cells (SKW3 cells; human …); experiment: FACS confirmation, supernatant on human PBMCs, anti-mouse Fc 647, CD4+ percent of viable cells

Binder | PBMCs, anti-mFc 647 CD4+ Percent Bound of Viable [%]
B6 | 31
B7 | 27
B8 | 32
B9 | 29

target: T1, human CD4 on the surface of SKW3 cells …; experiment: FACS confirmation, supernatant on SKW3 WT cells, anti-mouse Fc A647; background gMFI 3300

SKW3 WT anti-mFc 647, gMFI [gMFI] | Binder
21100 | B1
32300 | B2
36000 | B3
34300 | B4
36700 | B5

target: T2, human CD4 on cells (SKW3 cells; human …); experiment: FACS primary screen, non-clonal hybridoma supernatant, SKW3 vs SKW3 CD4 knockout cells, anti-mouse Fc A647

SKW3 WT vs KO anti-mFc-647 [fold] | Binder
6.8 | B6
4.6 | B7
6.3 | B8
3 | B9

target: T1, human CD4 on the surface of SKW3 cells …; experiment: FACS confirmation, supernatant on human PBMCs, anti-mouse Fc A647

Binder | PBMCs, anti-mFc 647 CD4+ Percent Bound of Viable [%]
B1 | 29
B2 | 31
B3 | 31
B4 | 27
B5 | 33

target: T2, human CD4 on cells (SKW3 cells; human …); experiment: FACS confirmation, supernatant on SKW3 WT cells, anti-mouse Fc 647; background gMFI 3300

SKW3 WT anti-mFc 647, gMFI [gMFI] | Binder
25000 | B6
24000 | B7
32500 | B8
19400 | B9

target: T1, human CD4 on the surface of SKW3 cells …; experiment: FACS primary screen, non-clonal hybridoma supernatant, SKW3 vs SKW3 CD4 KO cells, anti-mouse Fc A647

SKW3 WT vs KO anti-mFc-647 [ratio] | Binder
2.6 | B1
7.5 | B2
6.5 | B3
5.7 | B4
5 | B5

target: T4, huCD4-HIS (human, UniProt P01730 26-390, limits assumed); experiment: ELISA binning, competitor Ibalizumab; 100 ng/mL huCD4-HIS, anti-HIS HRP detection; background 45, max binding 3000000
T4 construct: the ELISA binning is not described in the text of this stretch

Ibalizumab ELISA binning signal | Binder
20300 | B6
710000 | B7
52600 | B8
823000 | B9

target: T1, human CD4 on the surface of SKW3 cells …; experiment: FACS binning on SKW3 cells; competitor OKT4-Alexa Fluor 488 (its signal read); background 2163, max binding 8200

OKT4 A488 signal | Binder
4180 | B1
2140 | B2
2280 | B3
2060 | B4
2760 | B5

target: T1, human CD4 on the surface of SKW3 cells …; experiment: FACS primary screen, non-clonal hybridoma supernatant, SKW3 vs SKW3 CD4 KO cells, anti-human kappa FITC

SKW3 WT vs KO anti-hKappa-FITC [ratio] | Binder
1 | B1
2.4 | B2
2.8 | B3
2.3 | B4
1.5 | B5

target: T2, human CD4 on cells (SKW3 cells; human …); experiment: FACS binning on SKW3 cells pre-incubated with supernatant; competitor RPA-T4-PE-Dazzle 594, its signal read; background 783, max binding 15000

SKW3 FACS Binning RPA-T4-PE-Dazzle 594 | Binder
15200 | B6
20300 | B7
13500 | B8
2590 | B9

target: T1, human CD4 on the surface of SKW3 cells …; experiment: FACS binning on SKW3 cells; competitor OKT4a, anti-human A647 secondary (its signal read); background 5000, max binding 35000

OKT4a anti-hu A647 Secondary signal | Binder
43700 | B1
43700 | B2
35900 | B3
39400 | B4
43100 | B5

target: T1, human CD4 on the surface of SKW3 cells …; experiment: FACS confirmation, supernatant on SKW3 WT cells, anti-human kappa FITC; background gMFI 2500

SKW3 WT anti-hu Kappa FITC, gMFI [gMFI] | Binder
4000 | B1
5930 | B2
7600 | B3
8510 | B4
6710 | B5

target: T2, human CD4 on cells (SKW3 cells; human …); experiment: as above

SKW3 WT anti-hu Kappa FITC, gMFI [gMFI] | Binder
5520 | B6
7520 | B7
6830 | B8
5740 | B9
